Data reported in patent US20170052184A1 (published 2017).
Ends that are not written are not given here.

Tests used:
Test in all cases: EIA; Ab 500 ng/mL captured on anti-mouse Fc; bt-peptide 500 ng/mL
[1] = biological target: T1, C113T109N biotin labeled HCV core peptide (hepatitis C virus, also: biotin labeled, position not given here)
T1 peptide: RGSRPSWGPND

[2] = biological target: T2, WT1STHV biotin labeled HCV core peptide (hepatitis C virus, biotin labeled)
T2 peptide: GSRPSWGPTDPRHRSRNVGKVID

[3] = biological target: T3, Mut1T110N biotin labeled HCV core peptide (hepatitis C virus, biotin labeled)
T3 peptide: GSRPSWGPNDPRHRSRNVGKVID

[4] = biological target: T4, C113WT biotin labeled HCV core peptide (hepatitis C virus, also: biotin labeled, position not given here)
T4 peptide: RGSRPSWGPTD

[5] = biological target: Mut6T110S biotin labeled HCV core peptide (hepatitis C virus)

B1: HCV Neo4 monoclonal antibody (antibody, V domains shown)
VH: QIQLKESGPAVIKPSQSLSLTCIVSGFSITSSVYCWQWIRQPPGKGLEWMGRICYDGSVDYSPSITSRGTISRDTSLNKVFFQLSSVTNEDTAMYYCSRENHIDYYDTTYPSFDVWGAGTTVTVSS
VL: DIVLTQSPASLIVSLGQRATISCRASKSVNEYGYTYMHWYQQKPGLPPKLLIYLASNLDSGVPARFSGSGSGTDFTLNIHPVEEEDAATYYCQHSRELPYTFGGGTKLEIKR
- signal at 492 nm [1]: 0.0803 OD 492 nm
- signal at 492 nm [2]: 1.91 OD 492 nm
- signal at 492 nm [3]: 0.065 OD 492 nm
- signal at 492 nm [4]: 0.0561 OD 492 nm
- signal at 492 nm [5]: 1.17 OD 492 nm
